Experimental data taken from patent US20240218079A1, “PLASMA KALLIKREIN ANTIBODIES AND USES THEREOF” (Astria Therapeutics, Inc., priority 2021, published 2024).

Legend:
Hepsin = assay: cell-based or functional assay
Thrombin a = assay: cell-based or functional assay

Sequence of DX-2930 (antibody) (VH): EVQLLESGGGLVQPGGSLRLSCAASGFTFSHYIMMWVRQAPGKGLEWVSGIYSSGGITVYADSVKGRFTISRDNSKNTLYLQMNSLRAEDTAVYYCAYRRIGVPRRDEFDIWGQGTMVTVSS
Sequence of DX-2930 (antibody) (VL): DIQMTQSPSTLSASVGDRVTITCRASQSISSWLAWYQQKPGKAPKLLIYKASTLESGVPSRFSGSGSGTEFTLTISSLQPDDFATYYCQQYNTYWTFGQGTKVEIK

IC50, protease inhibition assay, fluorescent peptide substrate, Duplicate 1 (Hepsin): > 1 µM
IC50, protease inhibition assay, fluorescent peptide substrate, Duplicate 2 (Hepsin): > 1 µM
IC50, protease inhibition assay, fluorescent peptide substrate, Duplicate 1 (Thrombin a): > 1 µM
IC50, protease inhibition assay, fluorescent peptide substrate, Duplicate 2 (Thrombin a): > 1 µM
Substance: DX-2930 (antibody)
